One substance from article PMC6831629 can be followed below.

The assay deals with myc-tagged Trpc1 (transient receptor potential canonical subfamily member 1) (X. laevis). Description: co-IP; mRNAs co-injected into 4-cell stage X. laevis embryos (200 pg/cell each); 12 animal caps (stage 8-9) lysed in SOFT buffer (50 mM Tris pH 7.4, 100 mM NaCl, 5 mM EDTA, 0.05% NP40, 1% Triton X100); 120 µg protein precipitated with anti-HA or anti-Myc antibodies and A/G protein beads; blots with anti-HA and anti-Myc; animal caps with or without 2 µg/mL noggin for 15 min before lysis.

Consider “HA-tagged BMP receptor type II, full length”, for which the fold change of the co-immunoprecipitated fraction with noggin against without noggin stood at 1.64 fold.
